Measurements as given in patent US20230051715A1 (MABWELL THERAPEUTICS, published 2023).

B1: Anti-C1s antibody 2-8 (antibody, V domains shown)
VH: EVQLQQSGAELVRPGALVKLSCKASGFNIKEYYMHWVKQRPEQGLEWIGWIDPENGDTIYDPKFQGKASITADTSSNTAYLQLSSLTSEDTAVYYCARSRLFFAYWGQGTLVTVSA
VL: DIVMTQSHKFMSTSVGDRVSFTCKASQDVRTAVDWYQQKPGQSPKLLIYSASYRYTGVPDRFTGTGSGTDFTFTISSVQAEDLAVYFCQQQYTTPYTFGGGTKLEIKT
notes: the HC/LC entries may hold it too; also called clone 2-8
B2: Anti-C1s antibody hz2-8 (H1L2 G80A/T82A) (antibody, V domains shown)
VH: QVQLVQSGAEVKKPGASVKVSCKASGFNIKEYYMHWVRQAPEQGLEWMGWIDPENADAIYAQKFQGRVTITADTSTNTAYMELSSLRSEDTAVYYCARSRLFFAYWGQGTLVTVSS
VL: DIQMTQSPKSLSASVGDRVTITCRASQDVRTALDWYQQKPGQSPKLLIYSASYRYSGVPSRFSGSGSGTDFTLTISSLQPEDFATYYCQQQYTTPYTFGQGTKLEIKR
notes: Humanized variant with G80A and T82A in HC CDR2 (already in the entry), human IgG1 / kappa

Assays:
[1] = molecular target: T1, full-length human C1s (produced in house) (human, UniProt P09871 16-688); experiment: BLI (Octet RED96e), antibody on AHC biosensor; C1s Species: Human; R^2 0.9992
T1 construct: Called full-length; Partly auto-cleaved at R422-I423 on blots; also called HuC1s; Hu C1s
T1 sequence: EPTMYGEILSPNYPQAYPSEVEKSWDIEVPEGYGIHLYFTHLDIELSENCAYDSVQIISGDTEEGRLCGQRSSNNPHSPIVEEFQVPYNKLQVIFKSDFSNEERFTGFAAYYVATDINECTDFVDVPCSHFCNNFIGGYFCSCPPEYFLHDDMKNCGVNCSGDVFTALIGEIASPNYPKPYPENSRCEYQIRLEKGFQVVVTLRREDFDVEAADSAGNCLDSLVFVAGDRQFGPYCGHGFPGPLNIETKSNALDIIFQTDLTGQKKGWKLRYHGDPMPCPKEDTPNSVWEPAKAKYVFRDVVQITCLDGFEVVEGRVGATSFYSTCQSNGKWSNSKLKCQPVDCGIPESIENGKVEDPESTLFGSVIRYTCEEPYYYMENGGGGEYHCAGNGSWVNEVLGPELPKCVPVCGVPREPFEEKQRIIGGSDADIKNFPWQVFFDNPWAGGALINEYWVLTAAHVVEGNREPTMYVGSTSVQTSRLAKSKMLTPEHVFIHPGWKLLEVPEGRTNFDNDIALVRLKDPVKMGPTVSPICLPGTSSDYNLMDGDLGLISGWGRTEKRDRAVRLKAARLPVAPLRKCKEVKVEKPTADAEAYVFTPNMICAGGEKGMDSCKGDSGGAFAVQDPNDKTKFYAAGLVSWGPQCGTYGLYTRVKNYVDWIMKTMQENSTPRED
Excerpt: (§1) At last, analyte was dissociated in 1×KB for 360 sec. Data analysis was done using OCTET® Data Analysis HT Software (Sartorius AG).

[2] = molecular target: T2, cynomolgus monkey C1s (produced in house) (cynomolgus monkey, UniProt P09871 16-685 (human entry), limits assumed); experiment: BLI (Octet RED96e), antibody on AHC biosensor; C1s Species: Cyno Monkey; R^2 0.9993
T2 construct: also called CyC1s
T2 chain: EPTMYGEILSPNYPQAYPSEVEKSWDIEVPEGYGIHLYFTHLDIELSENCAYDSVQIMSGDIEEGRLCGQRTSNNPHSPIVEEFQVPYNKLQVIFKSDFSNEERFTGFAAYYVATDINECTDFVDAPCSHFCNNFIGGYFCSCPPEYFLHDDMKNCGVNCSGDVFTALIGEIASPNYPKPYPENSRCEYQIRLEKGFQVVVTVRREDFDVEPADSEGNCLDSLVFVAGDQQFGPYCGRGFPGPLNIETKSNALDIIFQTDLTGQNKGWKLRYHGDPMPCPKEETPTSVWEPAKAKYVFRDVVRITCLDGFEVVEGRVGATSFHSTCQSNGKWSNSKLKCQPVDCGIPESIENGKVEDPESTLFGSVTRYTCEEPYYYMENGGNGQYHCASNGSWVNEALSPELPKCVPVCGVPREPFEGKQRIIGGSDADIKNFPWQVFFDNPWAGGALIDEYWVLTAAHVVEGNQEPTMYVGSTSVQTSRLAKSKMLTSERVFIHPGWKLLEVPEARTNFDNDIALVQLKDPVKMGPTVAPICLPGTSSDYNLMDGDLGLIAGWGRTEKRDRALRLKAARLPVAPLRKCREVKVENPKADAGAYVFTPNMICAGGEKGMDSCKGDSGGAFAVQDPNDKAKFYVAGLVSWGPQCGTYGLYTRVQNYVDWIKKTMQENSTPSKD
Excerpt: as §1

[3] = molecular target: T3, human C1s deletion mutant 3 (NHCΔ33) (human, UniProt P09871 16-404); experiment: ELISA, C1s fragment coated on plate; hz2-8(H1L2 G80A/T82A), second of the two values
T3 construct: C-terminal 6xHis tag; also called human C1s (NHCΔ33); C1s (NHCΔ33)
T3 sequence: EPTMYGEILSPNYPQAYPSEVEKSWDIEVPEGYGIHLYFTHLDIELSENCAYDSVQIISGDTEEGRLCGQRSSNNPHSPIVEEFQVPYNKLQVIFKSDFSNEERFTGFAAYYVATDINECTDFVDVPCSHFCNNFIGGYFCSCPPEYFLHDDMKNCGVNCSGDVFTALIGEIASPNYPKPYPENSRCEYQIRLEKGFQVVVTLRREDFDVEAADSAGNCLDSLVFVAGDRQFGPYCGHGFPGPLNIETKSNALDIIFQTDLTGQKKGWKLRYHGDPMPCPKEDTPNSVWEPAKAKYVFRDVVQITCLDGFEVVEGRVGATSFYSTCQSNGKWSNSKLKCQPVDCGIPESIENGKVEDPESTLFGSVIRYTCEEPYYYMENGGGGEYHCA
Description: ELISA was carried out by first coating 96-well plates with 200 ng/well of full-length or truncated C1s proteins overnight. The next morning, plates were blocked with SuperBlock T20 blocking buffer (Thermo Scientific 37536) for 1 h with gentle shaking. Then, various concentrations of anti-C1s antibodies diluted in SuperBlock T20 blocking buffer were added to the plates and incubated for 1 h with gentle shaking. Mouse IgG (Sigma-Aldrich 15381) and human IgG1 (BioXCell BP0297) were used as negative controls. The plates were washed before incubating with HRP conjugated secondary antibodies diluted in SuperBlock T20 blocking buffer (goat anti-mouse IgG (H+L) cross-adsorbed secondary antibody HRP (Invitrogen G-21040) or goat anti-human IgG antibody, HRP conjugate (Millipore AP309P)) for 1 h with gentle shaking. At last, the plates were washed and color developed with ELISA liquid HRP substrate (Sigma-Aldrich), followed by stopping the reaction with addition of 1M H₂SO₄ in the same volume as the ELISA liquid substrate. Bound antibody was measured by absorbance at OD₄₅₀ₙₘ.
Binding of various anti-C1s antibodies to human C1s (NHCΔ33) (SEQ ID NO: 111) was carried out by ELISA as described in Example 4, and results are shown in FIG. 6A.

Row | Binder | Kd [1] [nM] | koff [1] [s⁻¹] | kon [1] [M⁻¹ s⁻¹] | Kd [2] [nM] | koff [2] [s⁻¹] | kon [2] [M⁻¹ s⁻¹] | EC50 [3] [µg/mL]
1 | B1 | 0.032 | 0.00012 | 3.8e+06 |  |  |  | 
2 | B2 |  |  |  | 3.5 | 0.00081 | 230000 | 0.015
